Measured values from the supplement of paper PMC10126150.
± gives the standard deviation of the averaged measurements.

system: ATP; assay: switch fluorescence ratio, 500 uM ATP over buffer (Cy3 cluster intensity, sum of 5 cycles each) (fold (ratio)); higher = stronger signal-on switching upon ATP binding; sequences stand for … in TCGTCGGCAGCGTCAGATGTGTATAAGAGACAGTTTTTTTTTTTTTTTTTTTTTTTTT…TC; settings: aptamer strand: ATP DNA aptamer (quencher-CACCTGGGGGAGTATTGCGGAGGAAGG + anchor), 100 nM annealed; ATP concentration: 500 uM
Procedure, shortened: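 Clusters carrying Cy3-labelled switching strands on a modified Illumina MiSeq flow-cell were annealed to 100 nM quencher-labelled ATP aptamer and imaged in selection buffer. They were imaged again after 15 min with 500 uM ATP at 22 °C, over five buffer/ATP cycles with NaOH stripping and re-annealing in between. For each cluster, the fluorescence ratio is the summed Cy3 intensity of the target cycles divided by that of the buffer cycles, averaged per switch-domain sequence. Clusters outside 100-1000 RFU were left out.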
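Note: ATP exposure 15 min at 22 °C before imaging.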

| Sequence | switch fluorescence ratio |
| --- | --- |
| CACTTTTTTT | 1.01 ± 0.063 |
| CAGAAAATGG | 1 ± 0.012 |
| CAGAAATATT | 1.01 ± 0.075 |
| CAGAAATTGG | 1.013 ± 0.01 |
| CAGAACGCTG | 1.35 ± 0.12 |
| CAGAACGGCA | 1.095 ± 0.0092 |
| CAGAACGTTG | 0.983 ± 0.016 |
| CAGAACTGCG | 1.01 ± 0.015 |
| CAGAAGCGAT | 1.33 ± 0.025 |
| CAGACAGTTT | 0.993 ± 0.013 |
| CAGACCTCGT | 1 ± 0.013 |
| CAGACTGGGG | 1 ± 0.039 |
| CAGAGAGCGG | 0.9815 ± 0.0031 |
| CAGAGAGCGT | 1.008 ± 0.0068 |
| CAGAGAGGTG | 1.07 ± 0.041 |
| CAGAGAGTTT | 0.9851 ± 0.0044 |
| CAGAGCGGGG | 0.998 ± 0.023 |
| CAGAGGAACT | 0.999 ± 0.035 |
| CAGAGGAGGC | 0.987 ± 0.016 |
| CAGAGGCCAG | 0.993 ± 0.025 |
| CAGAGGGAAT | 1.05 ± 0.032 |
| CAGAGGGCAG | 1.02 ± 0.047 |
| CAGAGGGTGT | 1.12 ± 0.032 |
| CAGAGGTCGT | 1.013 ± 0.0081 |
| CAGAGTTCGG | 1.03 ± 0.015 |

| Sequence | switch fluorescence ratio |
| --- | --- |
| CAGAGTTTGA | 0.969 ± 0.0047 |
| CAGATAGGTT | 1.09 ± 0.14 |
| CAGATCAAGT | 1.016 ± 0.0034 |
| CAGATCACGA | 1.01 ± 0.017 |
| CAGATGGGAG | 1.02 ± 0.014 |
| CAGATGGTGT | 1.02 ± 0.015 |
| CAGATTCGAG | 1.008 ± 0.01 |
| CAGATTGATG | 0.983 ± 0.043 |
| CAGATTGGGG | 1 ± 0.025 |
| CAGATTGTGT | 1 ± 0.039 |
| CAGCAAGGGA | 1.12 ± 0.025 |
| CAGCACAGGG | 1.18 ± 0.017 |
| CAGCACGATA | 1.1615 ± 0.00014 |
| CAGCAGCTGG | 1.05 ± 0.034 |
| CAGCATAGAT | 1.08 ± 0.023 |
| CAGCCCTATA | 1.04 ± 0.047 |
| CAGCCGGATG | 1.02 ± 0.028 |
| CAGCCTGGGC | 0.984 ± 0.016 |
| CAGCGCATTA | 2.01 ± 0.11 |
| CAGCGGGACG | 1.02 ± 0.035 |
| CAGCGGGTCT | 1.04 ± 0.054 |
| CAGCGTATTG | 1.04 ± 0.037 |
| CAGCTCGGTC | 0.9687 ± 0.0082 |
| CAGCTGCTGC | 1.014 ± 0.0051 |
| CAGCTGGGAG | 1.03 ± 0.011 |

| Sequence | switch fluorescence ratio |
| --- | --- |
| CAGCTTCCCC | 1.29 ± 0.42 |
| CAGGAAAATT | 1 ± 0.032 |
| CAGGAACTTA | 0.9843 ± 0.0052 |
| CAGGACACCT | 1.17 ± 0.034 |
| CAGGACACTA | 1.03 ± 0.026 |
| CAGGACGGGT | 1.02 ± 0.03 |
| CAGGACTGCA | 1.028 ± 0.0039 |
| CAGGACTGGG | 1.01 ± 0.0056 |
| CAGGATAGGC | 1.003 ± 0.0044 |
| CAGGATGAAT | 0.999 ± 0.033 |
| CAGGATGTGC | 0.992 ± 0.032 |
| CAGGCAGATG | 1.01 ± 0.015 |
| CAGGCAGGGT | 0.969 ± 0.035 |
| CAGGCAGTAA | 1.18 ± 0.073 |
| CAGGCATTAT | 1.08 ± 0.043 |
| CAGGCCGGAG | 1.01 ± 0.022 |
| CAGGCGACGG | 1.01 ± 0.033 |
| CAGGCGGCG | 0.991 ± 0.017 |
| CAGGCTATTT | 1.03 ± 0.049 |
| CAGGCTGACC | 0.974 ± 0.025 |
| CAGGCTGGGC | 0.9862 ± 0.008 |
| CAGGCTTTTA | 0.983 ± 0.028 |
| CAGGGAATAG | 1.07 ± 0.049 |
| CAGGGACCTG | 1.03 ± 0.032 |
| CAGGGACGGC | 1.02 ± 0.012 |

| Sequence | switch fluorescence ratio |
| --- | --- |
| CAGGGACTGG | 1 ± 0.072 |
| CAGGGAGAGG | 1 ± 0.011 |
| CAGGGATAGT | 1.26 ± 0.32 |
| CAGGGCAAGG | 1.12 ± 0.08 |
| CAGGGGGCAG | 1.05 ± 0.07 |
| CAGGGGGCGT | 0.984 ± 0.0037 |
| CAGGGGGCTA | 1.01 ± 0.067 |
| CAGGGGGGGA | 1.01 ± 0.044 |
| CAGGGGTATA | 1.02 ± 0.024 |
| CAGGGGTGGG | 0.999 ± 0.058 |
| CAGGGTGGTA | 0.9934 ± 0.0048 |
| CAGGGTGGTC | 1.04 ± 0.0048 |
| CAGGGTGTGG | 0.976 ± 0.014 |
| CAGGGTGTTG | 0.964 ± 0.041 |
| CAGGTAAGCG | 0.969 ± 0.051 |
| CAGGTATGT | 0.991 ± 0.015 |
| CAGGTCCGGG | 1.02 ± 0.018 |
| CAGGTCCTTT | 1.01 ± 0.025 |
| CAGGTCGGCT | 0.995 ± 0.052 |
| CAGGTGAGAC | 1.31 ± 0.04 |
| CAGGTTGGAG | 1.15 ± 0.24 |
| CAGGTTTAAA | 0.992 ± 0.034 |
| CAGGTTTAAG | 0.975 ± 0.055 |
| CAGTAAAAGT | 0.983 ± 0.031 |
| CAGTAAGTCT | 1.05 ± 0.076 |

| Sequence | switch fluorescence ratio |
| --- | --- |
| CAGTAATGTT | 0.994 ± 0.033 |
| CAGTAATTGC | 1.05 ± 0.023 |
| CAGTAATTGT | 0.9856 ± 0.0029 |
| CAGTACCTAA | 1.039 ± 0.0019 |
| CAGTACGGTT | 1 ± 0.037 |
| CAGTACTGGT | 0.99384 ± 0.00024 |
| CAGTAGAATA | 1.02 ± 0.022 |
| CAGTAGTTAT | 0.996 ± 0.011 |
| CAGTATCCTT | 1.027 ± 0.003 |
| CAGTATCGGA | 0.9814 ± 0.008 |
| CAGTATGGTA | 1 ± 0.012 |
| CAGTATGTAG | 0.957 ± 0.02 |
| CAGTATGTCC | 0.966 ± 0.035 |
| CAGTATTAGA | 1.003 ± 0.0037 |
| CAGTCCATTA | 1.011 ± 0.0093 |
| CAGTCCTGTA | 1 ± 0.042 |
| CAGTCGACGG | 0.993 ± 0.011 |
| CAGTCGCGTG | 0.993 ± 0.018 |
| CAGTGAGACT | 1.02 ± 0.037 |
| CAGTGCAGCG | 1.06 ± 0.057 |
| CAGTGCGCTT | 1.1 ± 0.085 |
| CAGTGGACCG | 1.004 ± 0.0011 |
| CAGTGGACGG | 0.971 ± 0.042 |
| CAGTGGATCG | 1.008 ± 0.0011 |
| CAGTGGCGTA | 1.01 ± 0.011 |

| Sequence | switch fluorescence ratio |
| --- | --- |
| CAGTGTCTGA | 1.05 ± 0.037 |
| CAGTGTGTGC | 1.03 ± 0.015 |
| CAGTGTTATC | 1.01 ± 0.013 |
| CAGTGTTCCG | 0.977 ± 0.042 |
| CAGTTACGAT | 1.03 ± 0.032 |
| CAGTTAGTAC | 1.1 ± 0.018 |
| CAGTTATAAT | 1.04 ± 0.016 |
| CAGTTGGGTT | 1.02 ± 0.041 |
| CAGTTGTGGT | 0.998 ± 0.011 |
| CAGTTTAAGG | 1.01 ± 0.024 |
| CAGTTTGAGT | 1.006 ± 0.0014 |
| CAGTTTTGGC | 1.01 ± 0.025 |
| CATAAAATCG | 0.9666 ± 0.0091 |
| CATAAAGGAT | 0.97 ± 0.011 |
| CATAACTAAA | 1 ± 0.012 |
| CATAACTATT | 0.989 ± 0.015 |
| CATAAGCCTC | 1.03 ± 0.056 |
| CATAAGGCTC | 1 ± 0.02 |
| CATAATATTA | 0.9698 ± 0.0032 |
| CATAATCGCA | 1.04 ± 0.021 |
| CATACACCTT | 1.21 ± 0.032 |
| CATACCGGGG | 1.025 ± 0.0049 |
| CATACTTCAT | 1.049 ± 0.0063 |
| CATAGAAAAT | 0.965 ± 0.0069 |
| CATAGAAGCT | 0.976 ± 0.048 |

| Sequence | switch fluorescence ratio |
| --- | --- |
| CATAGAATTT | 0.978 ± 0.084 |
| CATAGATCTG | 1.01 ± 0.028 |
| CATAGATGTC | 0.989 ± 0.063 |
| CATAGCCTAA | 1.008 ± 0.0031 |
| CATAGGAGGG | 0.977 ± 0.056 |
| CATAGGATTG | 1.0163 ± 0.00094 |
| CATAGGGTTC | 0.9954 ± 0.0089 |
| CATAGTTCTG | 0.981 ± 0.028 |
| CATATCCAGG | 1.34 ± 0.017 |
| CATATCCCCT | 1.03 ± 0.045 |
| CATATCGCCC | 1.06 ± 0.039 |
| CATATGGGGC | 1.048 ± 0.00092 |
| CATATGTTGA | 0.975 ± 0.026 |
| CATATTATGG | 0.981 ± 0.036 |
| CATATTTTAG | 0.989 ± 0.032 |
| CATCAATAAT | 1.045 ± 0.0083 |
| CATCGACTGG | 0.965 ± 0.017 |
| CATCGAGAGG | 1.01 ± 0.019 |
| CATCGAGTGT | 1.05 ± 0.029 |
| CATCGCAAAG | 4.33 ± 0.46 |
| CATCGCTATG | 1.096 ± 0.0097 |
| CATCGGATTT | 0.972 ± 0.01 |
| CATCGGGTGG | 1.03 ± 0.09 |
| CATCGGTGCG | 1.08 ± 0.19 |
| CATCGGTGGG | 0.97 ± 0.016 |

| Sequence | switch fluorescence ratio |
| --- | --- |
| CATCGGTGTG | 0.958 ± 0.047 |
| CATCGTCACG | 1.007 ± 0.0025 |
| CATCGTGGTT | 0.9778 ± 0.0043 |
| CATCTCTAGC | 0.993 ± 0.012 |
| CATCTCTGGA | 0.9986 ± 0.0016 |
| CATCTGCGGG | 1.16 ± 0.17 |
| CATCTTAGTG | 1.02 ± 0.057 |
| CATCTTGGAA | 1.01 ± 0.015 |
| CATGAAAAGT | 0.978 ± 0.047 |
| CATGAAGCTG | 1.02 ± 0.018 |
| CATGACCGAA | 1.014 ± 0.0039 |
| CATGATAGCG | 0.9981 ± 0.0019 |
| CATGATATGG | 0.969 ± 0.02 |
| CATGCATATT | 1.01 ± 0.044 |
| CATGCGAGGG | 1 ± 0.035 |
| CATGGAATCG | 1.02 ± 0.035 |
| CATGGAATTG | 0.989 ± 0.032 |
| CATGGAGCGA | 1.24 ± 0.064 |
| CATGGAGTAC | 1.02 ± 0.032 |
| CATGGCACGT | 1.02 ± 0.011 |
| CATGGCCTCT | 0.987 ± 0.034 |
| CATGGCCTGA | 0.977 ± 0.018 |
| CATGGGAATT | 0.982 ± 0.032 |
| CATGGGGGGA | 0.994 ± 0.018 |
| CATGGGGTTA | 1.04 ± 0.048 |
